# Measured values as given in patent US20150111836, “CELLULAR APOBEC3 PROTEINS AND MODULATORS THEREOF FOR REGULATING DNA REPAIR PROCESSES AND TREATING PROLIFERATIVE DISEASES” (YISSUM RESEARCH DEVELOPMENT COMPANY OF THE HEBREW …, published 2015).
# B1: S160 (ssDNA)
# DNA: GGATTGGTTGGTTATTTGTTTAAGGAAGGAAGAAGGAAGGCCCAATAAGGGAAGGCCCAATAAGTGGGAAGGCCCAATAAGTGAATTAAATAAGTGATTGATAAATAAGTGATTGATAAGTTGATTAAATAGTTGGAAGTTATGTTTGGTAGATTGATGG
# B2: S160 with 3' end double-stranded (mixed)
# DNA 1: B1 DNA
# DNA 2: CCATCAATCTACCAAACATAACTTCCATCA
# B3: SC (ssDNA)
# DNA: GGATTGGTTGGTTATTTGTTTAAGGAAGGTGGATTAAAGGCCCATAAGGTGATGGAAGTTATGTTTGGTAGATTGATGG
# Key:
# [1] = molecular target: T1, APOBEC3G (A3G) (Homo sapiens, UniProt Q9HC16 SEQ:1-384); assay: EMSA; 8 min RT; conditions: tags: C-terminal Myc-His6, expressed in 293T cells; chain copies: monomer to multimer (stated)
# T1 sequence (Q9HC16 whole entry): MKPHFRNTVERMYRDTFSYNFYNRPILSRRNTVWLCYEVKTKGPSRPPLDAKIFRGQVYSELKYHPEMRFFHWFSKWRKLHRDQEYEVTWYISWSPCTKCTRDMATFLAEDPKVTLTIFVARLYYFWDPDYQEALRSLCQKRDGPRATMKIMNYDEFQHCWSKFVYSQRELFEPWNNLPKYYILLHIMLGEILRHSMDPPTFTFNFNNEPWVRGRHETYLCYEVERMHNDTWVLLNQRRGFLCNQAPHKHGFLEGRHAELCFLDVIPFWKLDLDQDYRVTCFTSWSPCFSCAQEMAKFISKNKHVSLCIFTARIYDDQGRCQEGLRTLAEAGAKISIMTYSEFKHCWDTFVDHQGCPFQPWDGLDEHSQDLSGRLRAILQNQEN
# Procedure: (§1) FIG. 2D. A3G end-dependent association with ssDNA was assessed by electro-mobility shift assay (EMSA). S₁₆₀ oligonucleotide ends (3′, 5′, 3′+5′) were annealed to short complementary oligonucleotides (30 nt) and then incubated with A3G or BSA for 8 min at room temperature (RT). Acrylamide gels were stained with SYBR gold nucleic acid stain.
# [2] = molecular target: T1, APOBEC3G (A3G); assay: EMSA; either 3' or 5' ssDNA terminus required; 5' preference; conditions: tags: C-terminal Myc-His6, expressed in 293T cells, chain copies: monomer to multimer (stated), 3' end 30 nt duplex
# Procedure: as §1
# [3] = molecular target: T1, APOBEC3G (A3G); assay: EMSA; 8 min 37 C; RPA pre-binding inhibits monomeric complex (FIG. 5C); conditions: tags: C-terminal Myc-His6, expressed in 293T cells; chain copies: monomer to multimer (stated); label: 3' dATP-biotin (TdT)
# Procedure: (§2) FIG. 3B. Electro-mobility shift assay (EMSA). The indicated proteins were incubated with biotinylated SC oligonucleotides (80 nt) for 8 min at 37° C. and resolved by native PAGE. Acrylamide gels were transferred to nylon membranes and probed by enhanced chemiluminescence.
# [4] = molecular target: APOBEC3G W285A (Homo sapiens, UniProt Q9HC16 SEQ:1-384); assay: EMSA; binding similar to wild type; conditions: tags: C-terminal His6, expressed in 293T cells; label: 3' dATP-biotin (TdT)
# Sequence of APOBEC3G W285A (Q9HC16 whole entry W285A): as the sequence (Q9HC16 whole entry) above, with W285A counted along it
# Procedure: as §2
binder,measurement,setting,value
B1,binding result,[1],binds
B2,binding result,[2],binds
B3,binding result,[3],binds
same,binding result,[4],binds
